{"source": "paper PMC6771821", "about": "“Cryo‐EM structure of the MinCD copolymeric filament from Pseudomonas aeruginosa at 3.1 Å resolution” (Febs Letters, 2019)", "proteins": {"B1": {"name": "MinC from Pseudomonas aeruginosa, full-length, His6-tagged (natural protein, UniProt Q9HYZ7 1-263, looked up)", "chain": "MSQADLLDQDPVFQLKGSMLAVTILELAHNDLARLERQLADKVAQAPNFFRDTPLVMALDKLPEGEGRLDLPALLEVCRRHGLRTLAIRAGREEDIAAAQALDLPVLPPSGARERPLDIKDSAPRKPAEEPSPSAGEARPEPAKAEEKPAEPVSRPTKVVKTPVRGGMQIYAAGGDLIVLAAVSPGAELLADGNIHVYGPMRGRALAGVKGDATARIFCQQLAAELVSIAGNYKVAEDLRRSPQWGKAVHVSLSGDVLNITRL", "notes": "MinC (septum site-determining protein), Pseudomonas aeruginosa, residues 1-263, cloned into pET-15b; only residues 156-261 (MinC^C) are modelled in the cryo-EM map; the tag was not removed; also called MinC2 (dimer); source: E. coli C41(DE3), purified (HisTrap HP, dialysis); not shown: His6, N-terminal, kept"}}, "biological_target": "the molecule itself", "test": "cryo-EM structure; unsupported MinCD filaments in solution; MinC and MinD each 0.5 mg/mL combined in equal proportion in 20 mM HEPES-Na, 100 mM potassium acetate, 5 mM magnesium acetate, pH 7.0; 1 mM ATP, 15 min at room temperature; helical reconstruction"}
{"protein": "B1", "values": [{"measurement": "binding result", "result": "binds"}]}
